Source: paper PMC9305627

Assays:
Test in all cases: ELISA
UbV.ANKRD13D.4 S65A = UbV.ANKRD13D.4 S65A (UniProt P0CG47)
UbV.ANKRD13D.4 Q49A = UbV.ANKRD13D.4 Q49A (UniProt P0CG47)
UbV.ANKRD13D.4 T12A = UbV.ANKRD13D.4 T12A (UniProt P0CG47)
UbV.ANKRD13D.4 L70A = UbV.ANKRD13D.4 L70A (UniProt P0CG47)
UbV.ANKRD13D.4 W72A = UbV.ANKRD13D.4 W72A (UniProt P0CG47)

Measured: fold effect on affinity against UbV.ANKRD13D.4

RGQQEEEDLQRILQLSLTEH [UIM.ANKRD13D.4 peptide]
< 3 fold: all assays above
